Measured values published in patent publication US20230002496A1 (STAIDSON BEIJING BIOPHARMACEUTICALS, published 2023).
Residue numbers refer to the chain shown, from its start. Blank lines part the entries; values can stand above or below the binder they belong to.

Biological target: T1, human GM-CSFRα, full length on cells (human, UniProt P15509 23-400)
T1 sequence: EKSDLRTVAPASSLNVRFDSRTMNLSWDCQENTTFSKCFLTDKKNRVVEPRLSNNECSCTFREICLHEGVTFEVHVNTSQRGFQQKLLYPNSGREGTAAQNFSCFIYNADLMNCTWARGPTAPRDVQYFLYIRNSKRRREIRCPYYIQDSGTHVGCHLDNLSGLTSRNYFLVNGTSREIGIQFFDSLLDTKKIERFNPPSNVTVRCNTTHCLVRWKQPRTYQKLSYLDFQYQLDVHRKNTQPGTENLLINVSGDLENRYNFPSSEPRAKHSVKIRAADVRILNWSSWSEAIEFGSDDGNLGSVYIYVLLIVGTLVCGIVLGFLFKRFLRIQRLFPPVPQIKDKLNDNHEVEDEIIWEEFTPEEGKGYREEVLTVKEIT
Assay: cell-based or functional assay

B2: E35-scFv LG50Q (scFv, V domains shown)
VH: QMQLVQSGAEVKKPGASVKVSCKVSGYTLTELSIHWVRQAPGKGLEWMGGFDPEDGETIYAQKFQGRVTMTGDTSTDTAYLELSSLRSEDTALYYCATGRYTSLATTYGFDYWGQGTLVTVSS
VL: EIVMTQSPATLSLSPGERATLSCRASQSVSSYLAWYQQKPGQAPRLLIYQASSRATGIPDRFSGSGSGTDFTLTISRLEPEDFAVYYCQQYDNWPYTFGQGTKLEIK
IC50, TF-1 cell proliferation: 0.93 µg/mL

B4: E35-scFv LA51C (scFv, V domains shown)
VH: B2 VH
VL: B2 VL with Q50G, A51C
IC50, TF-1 cell proliferation: 0.37 µg/mL

B5: E35-scFv LA51S (scFv, V domains shown)
VH: B2 VH
VL: B2 VL with Q50G, A51S
IC50, TF-1 cell proliferation: 0.18 µg/mL

B7: E35-scFv LG50S (scFv, V domains shown)
VH: B2 VH
VL: B2 VL with Q50S
IC50, TF-1 cell proliferation: 1.3 µg/mL

B8: E35-scFv LA51P (scFv, V domains shown)
VH: B2 VH
VL: B2 VL with Q50G, A51P
IC50, TF-1 cell proliferation: 2.1 µg/mL

B9: E35-scFv LA51N (scFv, V domains shown)
VH: B2 VH
VL: B2 VL with Q50G, A51N
IC50, TF-1 cell proliferation: 0.36 µg/mL

B12: E35-scFv LA51T (scFv, V domains shown)
VH: B2 VH
VL: B2 VL with Q50G, A51T
IC50, TF-1 cell proliferation: 0.18 µg/mL

B16: E35-scFv LA51V (scFv, V domains shown)
VH: B2 VH
VL: B2 VL with Q50G, A51V
IC50, TF-1 cell proliferation: 0.36 µg/mL

B17: E35-scFv LG50T (scFv, V domains shown)
VH: B2 VH
VL: B2 VL with Q50T
IC50, TF-1 cell proliferation: 0.25 µg/mL

B19: E35-scFv LA51K (scFv, V domains shown)
VH: B2 VH
VL: B2 VL with Q50G, A51K
IC50, TF-1 cell proliferation: 0.168 µg/mL

B20: E35-scFv LG50D (scFv, V domains shown)
VH: B2 VH
VL: B2 VL with Q50D
IC50, TF-1 cell proliferation: 0.88 µg/mL

B22: E35-scFv LA51E (scFv, V domains shown)
VH: B2 VH
VL: B2 VL with Q50G, A51E
IC50, TF-1 cell proliferation: 0.81 µg/mL

B23: E35-scFv LG50V (scFv, V domains shown)
VH: B2 VH
VL: B2 VL with Q50V
IC50, TF-1 cell proliferation: 1.4 µg/mL

B25: E35-scFv LG50I (scFv, V domains shown)
VH: B2 VH
VL: B2 VL with Q50I
IC50, TF-1 cell proliferation: 1.08 µg/mL

B26: E35-scFv LA51Q (scFv, V domains shown)
VH: B2 VH
VL: B2 VL with Q50G, A51Q
IC50, TF-1 cell proliferation: 18.2 µg/mL

B30: E35-scFv LA51R (scFv, V domains shown)
VH: B2 VH
VL: B2 VL with Q50G, A51R
IC50, TF-1 cell proliferation: 0.12 µg/mL

B31: E35-scFv LA51W (scFv, V domains shown)
VH: B2 VH
VL: B2 VL with Q50G, A51W
IC50, TF-1 cell proliferation: 1.59 µg/mL

B36: E35-scFv LA51H (scFv, V domains shown)
VH: B2 VH
VL: B2 VL with Q50G, A51H
IC50, TF-1 cell proliferation: 0.162 µg/mL

B39: E35-scFv LA51L (scFv, V domains shown)
VH: B2 VH
VL: B2 VL with Q50G, A51L
IC50, TF-1 cell proliferation: 0.5 µg/mL

B40: E35-scFv LG50A (scFv, V domains shown)
VH: B2 VH
VL: B2 VL with Q50A
IC50, TF-1 cell proliferation: 0.5 µg/mL

B42: E35-scFv LA51F (scFv, V domains shown)
VH: B2 VH
VL: B2 VL with Q50G, A51F
IC50, TF-1 cell proliferation: 0.294 µg/mL

B43: E35-scFv LA51G (scFv, V domains shown)
VH: B2 VH
VL: B2 VL with Q50G, A51G
IC50, TF-1 cell proliferation: 0.12 µg/mL

B44: E35-scFv LA51M (scFv, V domains shown)
VH: B2 VH
VL: B2 VL with Q50G, A51M
IC50, TF-1 cell proliferation: 0.264 µg/mL

Further lines, results first:

IC50, TF-1 cell proliferation: 1.23 µg/mL
B1: E35-scFv LY32V (scFv, V domains shown)
VH: B2 VH
VL: B2 VL with Y32V, Q50G

IC50, TF-1 cell proliferation: 0.115 µg/mL
B3: E35-scFv LS52L (scFv, V domains shown)
VH: B2 VH
VL: B2 VL with Q50G, S52L

IC50, TF-1 cell proliferation: 0.089 µg/mL
B6: E35-scFv LS52R (scFv, V domains shown)
VH: B2 VH
VL: B2 VL with Q50G, S52R

IC50, TF-1 cell proliferation: 0.136 µg/mL
B10: E35-scFv LS52T (scFv, V domains shown)
VH: B2 VH
VL: B2 VL with Q50G, S52T

IC50, TF-1 cell proliferation: 1.75 µg/mL
B11: E35-scFv LS52D (scFv, V domains shown)
VH: B2 VH
VL: B2 VL with Q50G, S52D

IC50, TF-1 cell proliferation: 0.068 µg/mL
B13: E35-scFv LS52A (scFv, V domains shown)
VH: B2 VH
VL: B2 VL with Q50G, S52A

IC50, TF-1 cell proliferation: 0.192 µg/mL
B14: E35-scFv LS52H (scFv, V domains shown)
VH: B2 VH
VL: B2 VL with Q50G, S52H

IC50, TF-1 cell proliferation: 0.138 µg/mL
B15: E35-scFv LS52Q (scFv, V domains shown)
VH: B2 VH
VL: B2 VL with Q50G, S52Q

IC50, TF-1 cell proliferation: 1.9 µg/mL
B18: E35-scFv LY32C (scFv, V domains shown)
VH: B2 VH
VL: B2 VL with Y32C, Q50G

IC50, TF-1 cell proliferation: 1.35 µg/mL
B21: E35-scFv LY32G (scFv, V domains shown)
VH: B2 VH
VL: B2 VL with Y32G, Q50G

IC50, TF-1 cell proliferation: 3.12 µg/mL
B24: E35-scFv LY32R (scFv, V domains shown)
VH: B2 VH
VL: B2 VL with Y32R, Q50G

IC50, TF-1 cell proliferation: 3.75 µg/mL
B27: E35-scFv LY32E (scFv, V domains shown)
VH: B2 VH
VL: B2 VL with Y32E, Q50G

IC50, TF-1 cell proliferation: 0.181 µg/mL
B28: E35-scFv LS52Y (scFv, V domains shown)
VH: B2 VH
VL: B2 VL with Q50G, S52Y

IC50, TF-1 cell proliferation: 9.6 µg/mL
B29: E35-scFv LY32K (scFv, V domains shown)
VH: B2 VH
VL: B2 VL with Y32K, Q50G

IC50, TF-1 cell proliferation: 5.15 µg/mL
B32: E35-scFv LY32P (scFv, V domains shown)
VH: B2 VH
VL: B2 VL with Y32P, Q50G

IC50, TF-1 cell proliferation: 0.253 µg/mL
B33: E35-scFv LS52N (scFv, V domains shown)
VH: B2 VH
VL: B2 VL with Q50G, S52N

IC50, TF-1 cell proliferation: 0.073 µg/mL
B34: E35-scFv LS52W (scFv, V domains shown)
VH: B2 VH
VL: B2 VL with Q50G, S52W

IC50, TF-1 cell proliferation: 1.05 µg/mL
B35: E35-scFv LS52P (scFv, V domains shown)
VH: B2 VH
VL: B2 VL with Q50G, S52P

IC50, TF-1 cell proliferation: 1.35 µg/mL
B37: E35-scFv LY32A (scFv, V domains shown)
VH: B2 VH
VL: B2 VL with Y32A, Q50G

IC50, TF-1 cell proliferation: 0.167 µg/mL
B38: E35-scFv LS52F (scFv, V domains shown)
VH: B2 VH
VL: B2 VL with Q50G, S52F

IC50, TF-1 cell proliferation: 2.05 µg/mL
B41: E35-scFv LY32N (scFv, V domains shown)
VH: B2 VH
VL: B2 VL with Y32N, Q50G
